Experimental data taken from patent publication US20170342144A1 (Sanofi, published 2017).
Numbering of substitutions follows the chain as printed. Numbers in names are those of the source. Like-named read-outs stand apart in the source and are kept apart here. Values belong to the binder of their own block, whether it stands above or below them.

What was measured:
Experiment in all cases: Biacore, immobilised TGFβ
[1] = target: T1, human TGFβ2 (human, UniProt P61812 303-414)
T1 construct: also called TGFβ2 homodimer
T1 sequence: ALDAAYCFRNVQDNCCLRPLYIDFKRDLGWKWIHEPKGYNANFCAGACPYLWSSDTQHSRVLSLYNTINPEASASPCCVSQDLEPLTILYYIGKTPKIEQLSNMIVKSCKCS

[2] = target: T2, human TGFβ1 (human, UniProt P01137 279-390)
T2 construct: also called TGFβ1 homodimer

[3] = target: T3, human TGFβ3 (human, UniProt P10600 301-412)
T3 sequence: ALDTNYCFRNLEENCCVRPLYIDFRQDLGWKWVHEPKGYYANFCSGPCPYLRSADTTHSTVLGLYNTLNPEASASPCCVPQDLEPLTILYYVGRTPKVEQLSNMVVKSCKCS

[4] = target: T1, human TGFβ2; remark: listed apart in the source
[5] = target: T2, human TGFβ1; remark: listed apart in the source
[6] = target: T3, human TGFβ3; remark: listed apart in the source

T2 sequence (P01137 279-390 limits assumed): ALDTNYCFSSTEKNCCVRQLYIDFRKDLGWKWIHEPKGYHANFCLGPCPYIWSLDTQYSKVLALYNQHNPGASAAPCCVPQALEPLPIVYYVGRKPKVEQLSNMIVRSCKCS

binding result [1]: no binding (tested: 50 nM)
binding result [2]: no binding (tested: 50 nM)
binding result [3]: no binding (tested: 50 nM)
B1: A93R(LC) (antibody, V domains shown)
VH: QVQLVQSGAEVKKPGSSVKVSCKASGYTFSSNVISWVRQAPGQGLEWMGGVIPIVDIANYAQRFKGRVTITADESTSTTYMELSSLRSEDTAVYYCASTLGLVLDAMDYWGQGTLVTVSS
VL: ETVLTQSPGTLSLSPGERATLSCRASQSLGSSYLAWYQQKPGQAPRLLIYGASSRAPGIPDRFSGSGSGTDFTLTISRLEPEDFAVYYCQQYRDSPITFGQGTRLEIK
notes: GC1008 IgG4 variant, light chain substitution

binding result [1]: no binding (tested: 50 nM)
binding result [2]: no binding (tested: 50 nM)
binding result [3]: no binding (tested: 50 nM)
B2: L104R (antibody, V domains shown)
VH: B1 VH with L104R
VL: B1 VL with R93A
notes: GC1008 IgG4 variant

binding result [4]: no binding (tested: 50 nM)
binding result [5]: no binding (tested: 50 nM)
binding result [6]: no binding (tested: 50 nM)
B3: I52G (antibody, V domains shown)
VH: B1 VH with I52G
VL: B1 VL with R93A
notes: GC1008 IgG4 variant

binding result [1]: no binding (tested: 50 nM)
binding result [2]: no binding (tested: 50 nM)
binding result [3]: no binding (tested: 50 nM)
B4: V103R (antibody, V domains shown)
VH: B1 VH with V103R
VL: B1 VL with R93A
notes: GC1008 IgG4 variant

binding result [4]: no binding (tested: 50 nM)
binding result [5]: no binding (tested: 50 nM)
binding result [6]: no binding (tested: 50 nM)
B5: V55K (antibody, V domains shown)
VH: B1 VH with V55K
VL: B1 VL with R93A
notes: GC1008 IgG4 variant

binding result [4]: no binding (tested: 50 nM)
binding result [5]: no binding (tested: 50 nM)
binding result [6]: no binding (tested: 50 nM)
B6: I52E (antibody, V domains shown)
VH: B1 VH with I52E
VL: B1 VL with R93A
notes: GC1008 IgG4 variant

binding result [4]: no binding (tested: 50 nM)
binding result [5]: no binding (tested: 50 nM)
binding result [6]: no binding (tested: 50 nM)
B7: I52K (antibody, V domains shown)
VH: B1 VH with I52K
VL: B1 VL with R93A
notes: GC1008 IgG4 variant

binding result [4]: no binding (tested: 50 nM)
binding result [5]: no binding (tested: 50 nM)
binding result [6]: no binding (tested: 50 nM)
B8: I52W (antibody, V domains shown)
VH: B1 VH with I52W
VL: B1 VL with R93A
notes: GC1008 IgG4 variant

binding result [4]: no binding (tested: 50 nM)
binding result [5]: no binding (tested: 50 nM)
binding result [6]: no binding (tested: 50 nM)
B9: I52S (antibody, V domains shown)
VH: B1 VH with I52S
VL: B1 VL with R93A
notes: GC1008 IgG4 variant

binding result [4]: no binding (tested: 50 nM)
binding result [5]: no binding (tested: 50 nM)
binding result [6]: no binding (tested: 50 nM)
B10: I52R (antibody, V domains shown)
VH: B1 VH with I52R
VL: B1 VL with R93A
notes: GC1008 IgG4 variant

binding result [4]: no binding (tested: 50 nM)
binding result [5]: no binding (tested: 50 nM)
binding result [6]: no binding (tested: 50 nM)
B11: I52H (antibody, V domains shown)
VH: B1 VH with I52H
VL: B1 VL with R93A
notes: GC1008 IgG4 variant

binding result [4]: no binding (tested: 50 nM)
binding result [5]: no binding (tested: 50 nM)
binding result [6]: no binding (tested: 50 nM)
B12: I52Q (antibody, V domains shown)
VH: B1 VH with I52Q
VL: B1 VL with R93A
notes: GC1008 IgG4 variant

binding result [4]: no binding (tested: 50 nM)
binding result [5]: no binding (tested: 50 nM)
binding result [6]: no binding (tested: 50 nM)
B13: I52N (antibody, V domains shown)
VH: B1 VH with I52N
VL: B1 VL with R93A
notes: GC1008 IgG4 variant

binding result [1]: no binding (tested: 50 nM)
binding result [2]: no binding (tested: 50 nM)
binding result [3]: no binding (tested: 50 nM)
B14: L104K (antibody, V domains shown)
VH: B1 VH with L104K
VL: B1 VL with R93A
notes: GC1008 IgG4 variant
